Earlier results, collected in patent US20210265014A1, “METHOD AND ELECTRONIC SYSTEM FOR PREDICTING AT LEAST ONE FITNESS VALUE OF A PROTEIN VIA AN EXTENDED NUMERICAL SEQUENCE, RELATED COMPUTER PROGRAM PRODUCT” (PEACCEL, priority 2018, published 2021).

Biological target: T1, Glucagon like peptide-2 (GLP-2) receptor (Rattus norvegicus, UniProt Q9Z0W0)
T1 sequence (Q9Z0W0 1-550): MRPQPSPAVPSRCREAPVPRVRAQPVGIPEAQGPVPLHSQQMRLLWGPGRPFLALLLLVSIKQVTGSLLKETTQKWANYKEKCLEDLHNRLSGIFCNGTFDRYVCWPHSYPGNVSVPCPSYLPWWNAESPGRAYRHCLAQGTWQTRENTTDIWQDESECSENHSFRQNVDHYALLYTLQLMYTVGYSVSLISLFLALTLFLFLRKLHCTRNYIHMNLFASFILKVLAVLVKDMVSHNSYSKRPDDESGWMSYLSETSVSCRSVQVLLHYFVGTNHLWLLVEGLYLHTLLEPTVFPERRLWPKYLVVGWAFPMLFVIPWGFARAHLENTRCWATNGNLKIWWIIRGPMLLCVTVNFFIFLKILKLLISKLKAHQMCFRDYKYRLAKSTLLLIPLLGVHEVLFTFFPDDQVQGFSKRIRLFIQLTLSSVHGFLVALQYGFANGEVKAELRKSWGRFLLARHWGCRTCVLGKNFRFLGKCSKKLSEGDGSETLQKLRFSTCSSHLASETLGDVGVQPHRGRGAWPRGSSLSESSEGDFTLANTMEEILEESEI
Settings: receptor activation, fold increase over basal cAMP production

Row | Substance | fold-increase in cAMP [fold]
1 | D3A: alanine variant of Glucagon like peptide-2 (GLP-2) (HAAGSFSDEMNTILDNLAARDFINWLIQTKITD; Glucagon-like peptide 2; UniProt P01275 146-178, looked up, variant D3A) [Chimera D3A] | 1.02
2 | T29A: alanine variant of Glucagon like peptide-2 (GLP-2) (HADGSFSDEMNTILDNLAARDFINWLIQAKITD; Glucagon-like peptide 2; UniProt P01275 146-178, looked up, variant T29A) [Chimera T29A] | 4.78
3 | T12A: alanine variant of Glucagon like peptide-2 (GLP-2) (HADGSFSDEMNAILDNLAARDFINWLIQTKITD; Glucagon-like peptide 2; UniProt P01275 146-178, looked up, variant T12A) [Chimera T12A] | 3.11
4 | L14A: alanine variant of Glucagon like peptide-2 (GLP-2) (HADGSFSDEMNTIADNLAARDFINWLIQTKITD; Glucagon-like peptide 2; UniProt P01275 146-178, looked up, variant L14A) [Chimera L14A] | 2.03
5 | L26A: alanine variant of Glucagon like peptide-2 (GLP-2) (HADGSFSDEMNTILDNLAARDFINWAIQTKITD; Glucagon-like peptide 2; UniProt P01275 146-178, looked up, variant L26A) [Chimera L26A] | 2.33
6 | R20A: alanine variant of Glucagon like peptide-2 (GLP-2) (HADGSFSDEMNTILDNLAAADFINWLIQTKITD; Glucagon-like peptide 2; UniProt P01275 146-178, looked up, variant R20A) [Chimera R20A] | 3.94
7 | L17A: alanine variant of Glucagon like peptide-2 (GLP-2) (HADGSFSDEMNTILDNAAARDFINWLIQTKITD; Glucagon-like peptide 2; UniProt P01275 146-178, looked up, variant L17A) [Chimera L17A] | 1.02
8 | D15A: alanine variant of Glucagon like peptide-2 (GLP-2) (HADGSFSDEMNTILANLAARDFINWLIQTKITD; Glucagon-like peptide 2; UniProt P01275 146-178, looked up, variant D15A) [Chimera D15A] | 4.54
9 | Q28A: alanine variant of Glucagon like peptide-2 (GLP-2) (HADGSFSDEMNTILDNLAARDFINWLIATKITD; Glucagon-like peptide 2; UniProt P01275 146-178, looked up, variant Q28A) [Chimera Q28A] | 5.80
10 | I31A: alanine variant of Glucagon like peptide-2 (GLP-2) (HADGSFSDEMNTILDNLAARDFINWLIQTKATD; Glucagon-like peptide 2; UniProt P01275 146-178, looked up, variant I31A) [Chimera I31A] | 4.42
11 | D21A: alanine variant of Glucagon like peptide-2 (GLP-2) (HADGSFSDEMNTILDNLAARAFINWLIQTKITD; Glucagon-like peptide 2; UniProt P01275 146-178, looked up, variant D21A) [Chimera D21A] | 4.42
12 | D8A: alanine variant of Glucagon like peptide-2 (GLP-2) (HADGSFSAEMNTILDNLAARDFINWLIQTKITD; Glucagon-like peptide 2; UniProt P01275 146-178, looked up, variant D8A) [Chimera D8A] | 7.53
13 | H1A: alanine variant of Glucagon like peptide-2 (GLP-2) (AADGSFSDEMNTILDNLAARDFINWLIQTKITD; Glucagon-like peptide 2; UniProt P01275 146-178, looked up, variant H1A) [Chimera H1A] | 0.78
